Laboratory results: patent publication US10295490B2, “MEMS-based calorimeter, fabrication, and use thereof” (The Trustees Of Columbia University In the City of New York, priority 2014, dated 2019)

How the values were obtained:
[1] = MEMS AC-DSC measurement of lysozyme unfolding (Example 3); format: physicochemical; details: 10 and 20 mg/mL in 0.1 M Glycine-HCl pH 2.5, 5° C./min, modulation 1, 5 or 10 Hz
From the text: The microdevice was also placed in a thermal enclosure built in-house. […] The AC-DSC measurement was fully automated through a Lab VIEW program.
The MEMS AC-DSC device calibrated above was used to measure the thermal behavior of protein unfolding.
Meanwhile, the specific heat capacity (c) of the protein as a function of temperature can be computed from the thermopile voltage amplitude (FIG. 19).

[2] = MEMS DSC measurement of lysozyme unfolding (Example 2); format: physicochemical; details: 0.1 M Glycine-HCl buffer pH 2.5; 1 to 20 mg/mL; scan 25-75° C. at 5° C./min
Protocol: DSC measurements of biomolecules were performed using the calibrated microdevice, whose sample chamber and reference chamber were respectively filled with biological sample and buffer solutions, scanned in a range of temperature of interest. The temperature sensors were used to monitor the temperatures of calorimetric chambers while the device output was obtained in real time to compute the biomolecular thermal power. Before DSC measurements, the baseline in device output, i.e., the thermopile output voltage in the absence of a differential power input, during temperature scanning was measured with both calorimetric chambers filled with buffer solutions. […]
The thermopile output voltage as a function of temperature, corrected by baseline subtraction, was measured at varying protein concentrations ranging from 1 to 20 mg/mL (FIG. 10).
Despite the amplitude difference of device output at various protein concentrations, they all yielded consistent estimates of the thermodynamic properties associated with the protein unfolding process. In particular, the profile shape of c was generally not influenced by protein concentration, and ΔH was consistently determined to be approximately 450 kJ/mol with a corresponding melting temperature Tm of approximately 55° C.

[3] = cited from earlier work
[4] = Polymer MEMS DSC measurement of lysozyme unfolding (Example 6); format: physicochemical; details: 0.1 M Glycine-HCL buffer pH 2.5; scan 5 K/min; all concentrations except 1 mg/mL
Protocol: The sample solutions and buffer were degassed overnight in a vacuum chamber built in-house, metered with Micropipettes, and introduced by a syringe pump (New Era Pump Systems, Inc., NE-1000) before the DSC measurements.
Before DSC measurements, the baseline, i.e., the thermopile output voltage in the absence of a differential power input, during temperature scanning in the range of interest was recorded with both calorimetric channels filled with buffer solutions. After which, characterizations of biomolecules were performed with the calorimetric channels, respectively filled with a biological sample and a buffer solutions, and scanned in the same range with pre-specified rate. The temperature sensors were used to monitor the temperatures of calorimetric channels, while the device output was obtained in real time to compute the biomolecular thermal power.
The calibrated polymer MEMS DSC device was then exploited to characterize protein unfolding. […]
The thermopile differential voltage as a function of temperature, corrected by baseline subtraction, was measured at varying concentrations ranging from 1 to 20 mg/mL (FIG. 42). […] Furthermore, the differential heat capacity as a function of temperature and the calibrated device sensitivity can be calculated from the device voltage output by Equation 7. The sample heat capacity as a function of temperature was determined by: […]

lysozyme: targeted sample biomolecule, purchased from Sigma Aldrich (lyophilized powder, protein ≥90%), used for protein unfolding DSC
apparent melting temperature (Tm) [1]: 55-58 °C
melting temperature Tm [2]: approximately 55 °C
total change of molar enthalpy (ΔH) of lysozyme unfolding [2]: approximately 450 kJ/mol
Tm of lysozyme, published data [3]: 55-58.9 °C
ΔH of lysozyme unfolding, published data [3]: 90.1 to 105 kcal/mol
melting temperature Tm [4]: 54.71 °C
total enthalpy change per mole of lysozome (ΔH) [4]: 101 kcal/mol
